Measurements taken from article PMC11638594 (Molecular Therapy. Methods & Clinical Development, 2024).

Biological target: AAV8 capsid (adeno-associated virus serotype 8) (adeno-associated virus 8, UniProt Q8JQF8)
Assay: cryo-EM structure

B1: AAVX nanobody (CaptureSelect Biotin Anti-AAVX Conjugate; ligand of the POROS CaptureSelect AAVX affinity resin) (VHH)
VHH: QVQIQESGGGIVQAGGSLRLSCAASGRTHGMYAMGWFRQAPGKEREFVAVQDITASNTHYSSAVKGRFTLSRDNAKNTAYLQMNNLKPEDTAVYYCAAGPTLMSGSYNSARDYDYWGQGTQVTVSS
stoichiometry N: 2 nanobodies per 5-fold
